Reference: paper PMC2912355 (Molecular Biology of the Cell, 2010)

T1: IFT72 (C. reinhardtii (endogenous in flagella), UniProt Q6RCE1 1-641)
T1 sequence (looked up): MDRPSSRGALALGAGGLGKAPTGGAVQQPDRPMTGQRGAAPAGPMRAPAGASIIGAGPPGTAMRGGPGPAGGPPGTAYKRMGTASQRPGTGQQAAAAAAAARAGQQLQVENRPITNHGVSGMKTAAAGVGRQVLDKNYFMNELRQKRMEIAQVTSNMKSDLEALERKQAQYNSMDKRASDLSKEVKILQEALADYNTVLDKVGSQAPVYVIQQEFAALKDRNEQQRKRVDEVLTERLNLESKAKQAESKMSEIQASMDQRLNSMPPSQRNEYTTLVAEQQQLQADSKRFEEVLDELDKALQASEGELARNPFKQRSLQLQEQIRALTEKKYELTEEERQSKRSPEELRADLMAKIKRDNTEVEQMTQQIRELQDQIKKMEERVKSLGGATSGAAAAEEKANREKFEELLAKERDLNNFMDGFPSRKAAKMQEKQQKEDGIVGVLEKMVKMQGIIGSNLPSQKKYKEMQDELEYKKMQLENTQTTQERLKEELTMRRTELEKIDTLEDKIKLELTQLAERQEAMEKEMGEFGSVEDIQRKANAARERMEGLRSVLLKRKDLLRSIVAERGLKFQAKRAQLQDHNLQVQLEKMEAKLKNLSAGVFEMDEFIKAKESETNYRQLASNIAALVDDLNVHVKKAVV

T2: IFT57 (C. reinhardtii (endogenous in flagella), UniProt Q2XQY7 1-469)
T2 sequence (looked up): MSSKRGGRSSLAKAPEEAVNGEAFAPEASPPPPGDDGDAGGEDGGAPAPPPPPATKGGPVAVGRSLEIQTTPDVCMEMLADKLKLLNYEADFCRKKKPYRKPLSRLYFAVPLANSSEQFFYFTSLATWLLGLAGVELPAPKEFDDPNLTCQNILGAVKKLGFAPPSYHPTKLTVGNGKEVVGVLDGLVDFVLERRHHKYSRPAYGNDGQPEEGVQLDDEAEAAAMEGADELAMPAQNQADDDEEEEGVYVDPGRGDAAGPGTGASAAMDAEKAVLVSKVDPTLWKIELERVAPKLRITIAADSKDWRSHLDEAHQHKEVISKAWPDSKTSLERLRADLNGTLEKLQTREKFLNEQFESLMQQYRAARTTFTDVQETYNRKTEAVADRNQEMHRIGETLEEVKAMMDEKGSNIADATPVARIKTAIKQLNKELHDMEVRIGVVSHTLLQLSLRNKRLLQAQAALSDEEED

B1: IFT70/CrDYF-1 (natural protein, C. reinhardtii (endogenous in flagella), UniProt A8ITN7 1-647, looked up)
chain: MAFFQQPARPIAEGQYTQTIYTLIKEQKFAEAIQHLQYQLQNVPESRAALSLLGYCYYYTGQYDMASQMYEQLVTLYPSNEDYKLYYAQSLYKGGMYPEASKAVVKVEGHQKAVTTLLVACSYEQDDLTGCRRQLDKCAPEDPDTMVNTGCIMFKEGKFEAARQKFNDAVQALGYQPELLYNIALCYYKTKQFGPALKHLAEIIEKAVREHPELSVGSNTDGMEVRSVGNSQTLKETALIEAFNLKAAIEYTMKNVEAAKEALTDMPPRAEEELDPVTLHNSALINMDSDPTGGFKKLNFLLQSPPFPPETFANLLLLYCKPSHGFYDLAADVLAENPQYAGKLLSPDLYDYLQAAIGRYKSPEEAFRRFDELATRHVEQLRRLTKQIQDARIARDNDAIKRAINEYDEALEAYIPGLMAMASIYWDMELYSNVEKIFRQSAEFCSEHEVWKLNVAHTFFMQDNHYKEAIRYYEPVVKKNADNLLGVTAIVLANLCVSYIMTSQNEEAEELMRKVEKEEERSSMQDPDKPCFHLCIINLVIGTLYCAKGNYEFGVSRIIKSLEPYDKKLETDTWYYAKRCFLALIENLAKHMIVLKDSSFTEIMAFLNEAEKHGKDIRVVFNEGKHQSRTIASEARMLKKMFLKLRD

How the values were obtained:
[1] = molecular target: Strep-II-Tag IFT46 (C. reinhardtii) (UniProt A2T2X4); assay: pull-down
Sequence of Strep-II-Tag IFT46 (C. reinhardtii) (A2T2X4 whole entry): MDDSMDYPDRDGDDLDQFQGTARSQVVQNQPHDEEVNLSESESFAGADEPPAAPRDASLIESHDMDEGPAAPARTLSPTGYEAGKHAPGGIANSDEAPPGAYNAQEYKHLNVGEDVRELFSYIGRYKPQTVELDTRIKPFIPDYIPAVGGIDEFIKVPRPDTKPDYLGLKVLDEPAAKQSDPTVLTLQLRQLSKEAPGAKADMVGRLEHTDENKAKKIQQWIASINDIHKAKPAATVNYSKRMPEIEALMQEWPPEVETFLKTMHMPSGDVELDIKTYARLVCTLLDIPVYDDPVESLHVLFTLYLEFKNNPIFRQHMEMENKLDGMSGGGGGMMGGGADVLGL

IFT72 = molecular target: T1, IFT72; assay: co-sedimentation
IFT57 = molecular target: T2, IFT57; assay: co-sedimentation

Row | Molecule | stoichiometry N [1] | stoichiometry N (IFT72) | stoichiometry N (IFT57)
1 | MBP-IFT70/CrDYF-1 (natural protein) | 1 |  | 
2 | B1 |  | ~1 | ~1
